These are literature values, as cited in article PMC6728138.

The target in data set [1] is PVIVIT peptide (synthetic construct).
Data set [2] concerns the target AKAP79 (Homo sapiens) (UniProt P24588).

pKd: −log10 of the molar value.

AKAP79 (Homo sapiens), sequence (P24588 whole entry): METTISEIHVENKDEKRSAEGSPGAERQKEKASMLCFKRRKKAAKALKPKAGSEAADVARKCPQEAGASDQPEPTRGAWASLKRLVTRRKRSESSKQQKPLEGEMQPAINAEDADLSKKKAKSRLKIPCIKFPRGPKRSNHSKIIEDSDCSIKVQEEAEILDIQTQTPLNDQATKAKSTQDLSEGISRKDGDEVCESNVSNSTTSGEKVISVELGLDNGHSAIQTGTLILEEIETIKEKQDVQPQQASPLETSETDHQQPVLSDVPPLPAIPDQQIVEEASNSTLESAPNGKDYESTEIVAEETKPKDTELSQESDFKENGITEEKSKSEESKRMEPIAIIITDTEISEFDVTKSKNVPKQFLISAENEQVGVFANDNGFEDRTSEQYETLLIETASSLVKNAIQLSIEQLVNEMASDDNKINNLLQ

As to Calcineurin (from UniProt Q08209), the negative-log Kd (pKd) in data set [1] and in data set [2] was 6.30 throughout.

In general, pKd refers to the Kd on a negative log10 scale, so that one unit is a factor of ten.
